Source: patent US20200024330A1

Experiments:
Test in all cases: cell-based or functional assay
[1] = target: HIV-1 Env of pseudovirus 93TH305, clade B (HIV-1)
[2] = target: HIV-1 Env of isolate MGRM-D-020 (clade D) (HIV-1)
[3] = target: HIV-1 MGRM-F1-023 Env (pseudovirus) (HIV-1)
[4] = target: HIV-1 92UG031 envelope glycoprotein (Env) (HIV-1)
[5] = target: HIV-1 98IN022 envelope glycoprotein (Env) on pseudovirus (HIV-1)
[6] = target: HIV-1 MGRM-A-002 envelope glycoprotein (Env) (HIV-1)
[7] = target: HIV-1 Env of pseudovirus TRJ0.58 (Acute), clade B (HIV-1)
[8] = target: HIV-1 Env of isolate MGRM-G-011 (clade G pseudovirus) (HIV-1)
[9] = target: HIV-1 Env of isolate MGRM-D-024 (clade D) (HIV-1)
[10] = target: HIV-1 92RW026 envelope glycoprotein (Env) (HIV-1)
[11] = target: HIV-1 MGRM-C-013 Env (HIV-1)
[12] = target: HIV-1 Env of pseudovirus MGRM-Chronic-B-001, clade B (HIV-1)
[13] = target: HIV-1 MGRM-C-015 Env (HIV-1)
[14] = target: HIV-1 MGRM-C-012 Env (HIV-1)
[15] = target: HIV-1 98CN009 envelope glycoprotein (Env) on pseudovirus (HIV-1)
[16] = target: HIV-1 93IN905 Env (HIV-1)
[17] = target: HIV-1 94KE105 envelope glycoprotein (Env) (HIV-1)
[18] = target: HIV-1 MGRM-C-009 Env (HIV-1)
[19] = target: HIV-1 Env of isolate 92WR021 (HIV-1)
[20] = target: HIV-1 Env of isolate MGRM-D-013 (HIV-1)
[21] = target: HIV-1 Env of isolate 6535.3 (pseudovirus) (HIV-1 isolate 6535.3, subtype B)
[22] = target: HIV-1 Env of isolate 92UG114 (HIV-1)
[23] = target: HIV-1 Env of isolate JRCSF (HIV-1) (UniProt P20871)
[24] = target: HIV-1 Env of isolate 92BR020 (pseudovirus) (HIV-1 isolate 92BR020, subtype B)
[25] = target: HIV-1 Env of isolate 93WR029 (HIV-1)
[26] = target: HIV-1 Env of isolate MGRM-D-002 (HIV-1)
[27] = target: HIV-1 JR-CSF Env V182A (HIV-1 (isolate JR-CSF)) (UniProt P20871)
[28] = target: HIV-1 Env of isolate 94KE105 (subtype AC), on pseudovirus (HIV-1)
[29] = target: HIV-1 Env of isolate MGRM-C-012 (HIV-1)
[30] = target: HIV-1 Env of isolate MGRM-Chronic-B-001 (HIV-1)
[31] = target: HIV-1 Env of isolate 92UG024 (HIV-1)
[32] = target: HIV-1 Env of isolate SF162 (HIV-1) (UniProt P19550)
[33] = target: HIV-1 Env of isolate MGRM-AE-003 (CRF01_AE), on pseudovirus (HIV-1)
[34] = target: HIV-1 JR-CSF Env K168A (HIV-1 (isolate JR-CSF)) (UniProt P20871)
[35] = target: HIV-1 Env of isolate MGRM-F1-021 (subtype F), on pseudovirus (HIV-1)
[36] = target: HIV-1 Env of isolate MGRM-D-012 (HIV-1)

Row | Substance | IC50 (µg/ml), pseudovirus neutralization [1] [µg/mL] | IC50 (µg/ml), pseudovirus neutralization [2] [µg/mL] | IC50 (µg/ml), pseudovirus neutralization [3] [µg/mL] | IC50 (µg/ml), pseudovirus neutralization [4] [µg/mL] | IC50 (µg/ml), pseudovirus neutralization [5] [µg/mL] | IC50 (µg/ml), pseudovirus neutralization [6] [µg/mL] | IC50 (µg/ml), pseudovirus neutralization [7] [µg/mL] | IC50 (µg/ml), pseudovirus neutralization [8] [µg/mL] | IC50 (µg/ml), pseudovirus neutralization [9] [µg/mL] | IC50 (µg/ml), pseudovirus neutralization [10] [µg/mL] | IC50 [11] [µg/mL] | IC50 (µg/ml), pseudovirus neutralization [12] [µg/mL] | IC50 [13] [µg/mL] | IC50 [14] [µg/mL] | IC50 (µg/ml), pseudovirus neutralization [15] [µg/mL] | IC50 [16] [µg/mL] | IC50 (µg/ml), pseudovirus neutralization [17] [µg/mL] | IC50 [18] [µg/mL] | also measured
1 | b12 (antibody) | 4.17 | > 50 | > 50 | > 50 | 0.42 | > 50 | > 50 | > 50 | 5.92 | > 50 | > 50 | 0.75 | 13.3 | > 50 | 1.52 | 21.4 | > 50 | > 50 | 
2 | 4E10 (antibody) | 12.3 | > 50 | 0.44 | 4.94 | 0.53 | 6.45 | 11.9 | 1.44 | 3.6 | 12.9 | 2.1 | 1.46 | 2.52 | 0.44 | 2.46 | 1.26 | 7.63 | 0.56 | 
3 | 5343_B08 (PGT-135) (antibody) |  |  |  |  |  |  |  |  |  |  |  |  |  |  |  |  |  |  | neutralization IC50 [19]: > 50 µg/mL; IC50 [20]: > 50 µg/mL; IC50 (µg/mL) neutralization [21]: > 50 µg/mL; IC50 [22]: 1.29 µg/mL; IC50 [23]: 0.131 µg/mL; IC50 (µg/mL) neutralization [24]: 0.073 µg/mL; neutralization IC50 [25]: > 50 µg/mL; IC50 [26]: > 50 µg/mL; Fold IC50 increase relative to wild-type [27]: 1.5 fold; IC50, single-round pseudovirus neutralization [28]: 0.063 µg/mL; IC50 [29]: 0.017 µg/mL; IC50 [30]: > 50 µg/mL; IC50 [31]: 0.01 µg/mL; IC50 [32]: 0.023 µg/mL; IC50, single-round pseudovirus neutralization [33]: > 50 µg/mL; Fold IC50 increase relative to wild-type [34]: 0.4 fold; IC50, pseudovirus neutralization [35]: 0.065 µg/mL; IC50 [36]: > 50 µg/mL
4 | 2F5 (antibody) | 7.61 | > 50 | 1.78 | 3.81 | > 50 | > 50 | > 50 | 1.16 | > 50 | 8.63 | 18.4 | 0.55 | > 50 | > 50 | > 50 | > 50 | > 50 | > 50 | 
5 | 5147_N06 (PGT-130) (antibody) |  |  |  |  |  |  |  |  |  |  |  |  |  |  |  |  |  |  | neutralization IC50 [19]: 0.004 µg/mL; IC50 [20]: 0.429 µg/mL; IC50 (µg/mL) neutralization [21]: 0.031 µg/mL; IC50 [22]: > 50 µg/mL; IC50 [23]: 0.01 µg/mL; IC50 (µg/mL) neutralization [24]: 1.4 µg/mL; neutralization IC50 [25]: 34.3 µg/mL; IC50 [26]: 0.869 µg/mL; Fold IC50 increase relative to wild-type [27]: 1.2 fold; IC50, single-round pseudovirus neutralization [28]: 0.004 µg/mL; IC50 [29]: > 50 µg/mL; IC50 [30]: > 50 µg/mL; IC50 [31]: > 50 µg/mL; IC50 [32]: 0.007 µg/mL; IC50, single-round pseudovirus neutralization [33]: 0.337 µg/mL; Fold IC50 increase relative to wild-type [34]: 1.2 fold; IC50, pseudovirus neutralization [35]: > 50 µg/mL; IC50 [36]: > 50 µg/mL
6 | 1495_C14 (PGC14) (antibody) | 6 | > 50 | > 50 | > 50 | 9 | > 50 | > 50 | > 50 | > 50 | > 50 | > 50 | > 50 | > 50 | > 50 | 43 | 19 | > 50 | > 50 | 
7 | 1443_C16 (PG16) (TCN-116) (antibody) | 19.3 | 16.3 | > 50 | 0.43 | 0.003 | 0.004 | 1.16 | 0.04 | 0.02 | 0.03 | > 50 | > 50 | 0.26 | 0.48 | 5.76 | 0.25 | 6.13 | > 50 | 
8 | 2G12 (antibody) | 0.55 | > 50 | 9.23 | > 50 | > 50 | > 50 | > 50 | > 50 | > 50 | 17.2 | > 50 | 0.08 | 1.75 | > 50 | > 50 | > 50 | 7.22 | > 50 | 
